Laboratory results taken from patent publication US20250326828A1 (STAIDSON BEIJING BIOPHARMACEUTICALS, published 2025).

T1: human GDF15-hFc (human)
T1 construct: Recombinant hFc-tagged fusion protein expressed in 293F cells
T1 chain: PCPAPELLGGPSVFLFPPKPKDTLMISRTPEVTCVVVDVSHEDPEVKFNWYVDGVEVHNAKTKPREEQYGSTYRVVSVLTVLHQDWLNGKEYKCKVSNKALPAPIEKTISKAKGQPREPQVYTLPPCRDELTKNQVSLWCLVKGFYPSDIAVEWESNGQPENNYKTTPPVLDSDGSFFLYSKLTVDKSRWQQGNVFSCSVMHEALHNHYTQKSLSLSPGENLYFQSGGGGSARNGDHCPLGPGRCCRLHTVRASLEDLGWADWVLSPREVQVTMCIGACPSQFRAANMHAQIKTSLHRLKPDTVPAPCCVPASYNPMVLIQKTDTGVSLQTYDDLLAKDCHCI

T2: human GDF15-his (human)
T2 construct: Recombinant His-tagged fusion protein expressed in 293F cells
T2 chain: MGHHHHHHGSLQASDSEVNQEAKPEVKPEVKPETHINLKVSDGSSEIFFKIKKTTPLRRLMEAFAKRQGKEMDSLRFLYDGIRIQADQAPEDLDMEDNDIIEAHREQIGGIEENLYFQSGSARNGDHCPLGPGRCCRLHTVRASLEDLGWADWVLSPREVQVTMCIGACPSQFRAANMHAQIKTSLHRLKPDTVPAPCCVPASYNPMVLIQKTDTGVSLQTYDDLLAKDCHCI


Key:
human GDF15-hFc [1] = molecular target: T1, human GDF15-hFc; experiment: competition ELISA as in Example 2; GFRAL-his coated, antibody titrated against human GDF15-hFc
Protocol: (§1) The ELISA assay was performed to measure the inhibitory activity of anti-GDF15 antibodies in concentration gradients to block GDF15 binding to GFRAL receptor. IC₅₀ values were used as a measure for neutralizing activity of candidate molecules. Briefly, 96-well plates were coated with 100 ng/well of GFRAL-his protein (SEQ ID NO: 74), and incubated for 1 h at 37° C. The plates were washed with PBST and then blocked for 1 hour at 37° C. with 1% BSA. Gradient-diluted antibodies (dose range 0˜10 μg/ml) was added into each well, immediately followed by equal volume of human GDF15-hFc protein ([…]). After incubation and washing, 100 μl of anti-human IgG secondary antibody (goat anti-human IgG-HRP, Sigma, A8667) was added to each well. Finally, TMB solution (100 μl/well) was added. 2M H₂SO₄ was used to stop the reaction. The OD450 was measured and the binding curve was generated by PRISM to calculate the IC₅₀ value.

human GDF15-his [2] = molecular target: T2, human GDF15-his; experiment: ELISA as in Example 2; antibody coated, human GDF15-his titrated
Protocol: (§2) ELISA binding assay: The purified monoclonal antibody was subjected to a binding assay with human GDF15-his protein. The binding assay was designed to characterize the binding activity of the anti-GDF15 antibody. Briefly, a 96-well plate was coated with anti-GDF15 antibody (200 ng/well) and incubated for 1 hour at 37° C. The plates were washed with PBST and then blocked for 1 hour at room temperature using 1% BSA. Then 100 µl/well of gradient-diluted human GDF15-his solution (dose range 0-50 μg/ml) was added into plates. After incubation, 100 μl of anti-his tag secondary antibody (anti-his-HRP (1:2000), Bersee, cat #BHR790) was added to each well. Finally, the TMB solution (100 μl/well) was added. 2M H₂SO₄ was used to stop the reaction. The OD450 was measured, and the binding curves were generated by PRISM software to analyze the affinity of candidate antibodies to human GDF15 antigen, and EC₅₀ value were calculated.

human GDF15-his [3] = molecular target: T2, human GDF15-his; experiment: cell-based or functional assay
human GDF15-his [4] = molecular target: T2, human GDF15-his; experiment: cell-based or functional assay
human GDF15-hFc [5] = molecular target: T1, human GDF15-hFc; experiment: competition ELISA; GFRAL-his coated, antibody titrated against human GDF15-hFc, anti-human IgG-HRP detection
Protocol: as §1

human GDF15-his [6] = molecular target: T2, human GDF15-his; experiment: ELISA as in Example 2: plate coated with the antibody, graded human GDF15-his, anti-his-HRP, OD450; the sheet's x axis reads 'Log GDF15 Antibody (nM)'
Protocol: as §2

human GDF15-his [7] = molecular target: T2, human GDF15-his; experiment: cell-based or functional assay

IC50 (human GDF15-hFc [1]) [nM]	EC50 (human GDF15-his [2]) [nM]	IC50, GFRAL/RET reporter cell assay as in Example 2 (human GDF15-his [3]) [nM]	IC50, 293T-GFRAL/RET-Luc SRE luciferase reporter cells stimulated with human GDF15-his (15 ng/ml) (human GDF15-his [4]) [nM]	IC50 (human GDF15-hFc [5]) [nM]	EC50 (read off the curve) (human GDF15-his [6]) [nM]	IC50 (read off the curve), SRE-luciferase signal in 293T-GFRAL/RET-Luc cells with human GDF15-his (human GDF15-his [7]) [nM]	Binder
1	142	0.11					hum_R54-1 (antibody, V domains shown, Tested in human IgG1 format) VH: EVQLLESGGGLVQPGGSLRLSCAVSGFSLSSYDMTWVRQAPGKGLEWIGIISGSGNTYYASWAKGRFTISRDNSKNTVYLQMNSLRAEDTAVYFCARGILVYADYGDHNLWGQGTLVTVSS VL: DIVMTQSPATLSVSPGERATLSCQASEDIYTNLAWFQQKPGQPPRLLIYAASTLASGIPARFSGSGSGTEFTLTISSLQSEDFAVYFCLGVYTYISAEGAFGQGTKVEIK
0.8	156	0.1					hum_R54-2 (antibody, V domains shown, Tested in human IgG1 format) VH: EVQLLESGGGLVQPGGSLRLSCAVSGFSLSSYDMTWVRQAPGKGLEWIGIISSSGNTYYASWAKGRFTISRDNSKNTVYLQMNSLRAEDTAVYFCARGILVYADYGDHNLWGQGTLVTVSS VL: DIVMTQSPATLSVSPGERATLSCQASEDIYTNLAWFQQKPGQPPRLLIYAASTLASGIPARFSGSGSGTEFTLTISSLQSEDFAVYFCLGVYTYISAEGAFGQGTKVEIK
1.24	173	0.07					hum_R54-3 (antibody, V domains shown, Tested in human IgG1 format) VH: EVQLLESGGGLVQPGGSLRLSCAVSGFSLSSYDMTWVRQAPGKGLEWIGIISNSGSTYYASWAKGRFTISRDNSKNTVYLQMNSLRAEDTAVYFCARGILVYADYGDHNLWGQGTLVTVSS VL: DIVMTQSPATLSVSPGERATLSCQASEDIYTNLAWFQQKPGQPPRLLIYAASTLASGIPARFSGSGSGTEFTLTISSLQSEDFAVYFCLGVYTYISAEGAFGQGTKVEIK
1.14	167	0.08					hum_R54-4 (antibody, V domains shown, Tested in human IgG1 format) VH: EVQLLESGGGLVQPGGSLRLSCAVSGFSLSSYDMTWVRQAPGKGLEWIGIISGSGSTYYASWAKGRFTISRDNSKNTVYLQMNSLRAEDTAVYFCARGILVYADYGDHNLWGQGTLVTVSS VL: DIVMTQSPATLSVSPGERATLSCQASEDIYTNLAWFQQKPGQPPRLLIYAASTLASGIPARFSGSGSGTEFTLTISSLQSEDFAVYFCLGVYTYISAEGAFGQGTKVEIK
0.89	98.4	0.08					hum_R54-5 (antibody, V domains shown, Tested in human IgG1 format) VH: EVQLLESGGGLVQPGGSLRLSCAVSGFSLSSYDMTWVRQAPGKGLEWIGIISGSGNTYYASWAKGRFTISKDSSKNTVYLQMNSLRAEDTAVYFCARGILVYADYGDHNLWGQGTLVTVSS VL: DIVMTQSPATLSVSPGERATLSCQASEDIYTNLAWFQQKPGQPPRLLIYAASTLASGIPARFSGSGSGTEFTLTISSLQSEDFAVYYCLGVYTYISAEGAFGQGTKVEIK
1.49	123	0.05					hum_R54-6 (antibody, V domains shown, Tested in human IgG1 format) VH: EVQLLESGGGLVQPGGSLRLSCAVSGFSLSSYDMTWVRQAPGKGLEWIGIISSSGNTYYASWAKGRFTISKDSSKNTVYLQMNSLRAEDTAVYFCARGILVYADYGDHNLWGQGTLVTVSS VL: DIVMTQSPATLSVSPGERATLSCQASEDIYTNLAWFQQKPGQPPRLLIYAASTLASGIPARFSGSGSGTEFTLTISSLQSEDFAVYYCLGVYTYISAEGAFGQGTKVEIK
1.36	111	0.04					hum_R54-7 (antibody, V domains shown, Tested in human IgG1 format) VH: EVQLLESGGGLVQPGGSLRLSCAVSGFSLSSYDMTWVRQAPGKGLEWIGIISNSGSTYYASWAKGRFTISKDSSKNTVYLQMNSLRAEDTAVYFCARGILVYADYGDHNLWGQGTLVTVSS VL: DIVMTQSPATLSVSPGERATLSCQASEDIYTNLAWFQQKPGQPPRLLIYAASTLASGIPARFSGSGSGTEFTLTISSLQSEDFAVYYCLGVYTYISAEGAFGQGTKVEIK
1	91.7	0.03					hum_R54-8 (antibody, V domains shown, Tested in human IgG1 format) VH: EVQLLESGGGLVQPGGSLRLSCAVSGFSLSSYDMTWVRQAPGKGLEWIGIISGSGSTYYASWAKGRFTISKDSSKNTVYLQMNSLRAEDTAVYFCARGILVYADYGDHNLWGQGTLVTVSS VL: DIVMTQSPATLSVSPGERATLSCQASEDIYTNLAWFQQKPGQPPRLLIYAASTLASGIPARFSGSGSGTEFTLTISSLQSEDFAVYYCLGVYTYISAEGAFGQGTKVEIK
			0.27	1.63			GDF-R40-rabIg1 (antibody, V domains shown, Full-length rabbit antibody: rabbit IgG1 heavy constant and rabbit light constant; also called GDF15-R40-rabIg1) VH: QSVKESEGRLVTPGTPLTLTCTASGFSLSSHWMSWVRQAPGKGLEWIGFVSPSGRAYYTSWVNGRFTISKTSTTVDLKITSPTTEDTATYFCARGYTSGLDIWGPGTLVTVSS VL: AIDMTQTPSPVSATVGGTVTISCQSSKSVVNGDWLAWYQQKPGQPPKLLIYDAATLASGVPSRFKGSGSGTQFTLTISDVQCADAATYYCAGVYNNDSDNGFGGGTEVVVK
			0.19	1.62			GDF-R46-rabIg1 (antibody, V domains shown, Full-length rabbit antibody: rabbit IgG1 heavy constant and rabbit light constant; also called GDF15-R46-rabIg1) VH: SQTVKESGGRLVTPGTPLTLTCTASGFSLSNYYMSWVRQAPGEGLEWIGMISFSGTTHATWAKGRFTISKTSTTVDLKITSPTSEDTATYFCARVVYAGWTYPLGIWGPGTLVTVSS VL: AQVMTQTPASVSEPVGGTVTIKCQASQSISSVLSWYQQKPGQPPKVLIYEASTLASGVPSRFKGSGSGTDFTLAISDLECADAATYYCQANYDVYNYGNPFGGGTEVVVK
1.74					~50	~0.2	hum_R37-1 (antibody, V domains shown, Tested in human IgG1 format) VH: EVQLVESGGGLVKPGGSLRLSCAASGFSLSNYYMSWVRQAPGKGLEWIGMISFSGTTYATWAKGRFTISKDSSKNTVYLQINSLKTEDTAVYFCARVVYAGWTYPLGIWGQGTLVTVSS VL: DIQLTQSPSSLSASVGDRVTITCQASQSISSVLSWYQQKPGKPPKALIYEASILASGVPSRFSGSGSGTDFTLTISSLQPEDFATYYCQANYDVYNYGNPFGGGTKVEIK
1.73					~60	~0.1	hum_R37-3 (antibody, V domains shown, Tested in human IgG1 format) VH: EVQLVESGGGLVKPGGSLRLSCAASGFSLSNYYMSWVRQAPGKGLEWIGMISFSGTTYATWAKGRFTISKDDSKNTVYLQINSLKTEDTAVYFCARVVYAGWTYPLGIWGQGTLVTVSS VL: DIQLTQSPSSLSASVGDRVTITCQASQSISSVLSWYQQKPGKPPKALIYEASILASGVPSRFSGSGSGTDFTLTISSLQPEDFATYYCQANYDVYNYGNPFGGGTKVEIK
